Biological target: recombinant ZgHAD, L-2-haloacid dehalogenase of Zobellia galactanivorans Dsij^T (Zobellia galactanivorans Dsij^T)
Test: SEC; gel filtration on HiLoad 16/600 Superdex 200 pg after nickel affinity purification; oligomeric state of the recombinant protein in solution

stoichiometry N: 2
Substance: recombinant ZgHAD, L-2-haloacid dehalogenase of Zobellia galactanivorans Dsij^T (enzyme)

Source: paper PMC8490876, “Functional Characterization of a L-2-Haloacid Dehalogenase From Zobellia galactanivorans Dsij^T Suggests a Role in Haloacetic Acid Catabolism and a Wide Distribution in Marine Environments” (Frontiers in Microbiology, 2021)
